Where “and” joins values, the source holds several entries; their conditions need not be identical. Equal entries are not always repeated.
T1: IL-18 receptor (IL-18Rαβ) on cells (UniProt Q13478 19-541; O95256 20-599, limits assumed)
T1 sequence (looked up) 1: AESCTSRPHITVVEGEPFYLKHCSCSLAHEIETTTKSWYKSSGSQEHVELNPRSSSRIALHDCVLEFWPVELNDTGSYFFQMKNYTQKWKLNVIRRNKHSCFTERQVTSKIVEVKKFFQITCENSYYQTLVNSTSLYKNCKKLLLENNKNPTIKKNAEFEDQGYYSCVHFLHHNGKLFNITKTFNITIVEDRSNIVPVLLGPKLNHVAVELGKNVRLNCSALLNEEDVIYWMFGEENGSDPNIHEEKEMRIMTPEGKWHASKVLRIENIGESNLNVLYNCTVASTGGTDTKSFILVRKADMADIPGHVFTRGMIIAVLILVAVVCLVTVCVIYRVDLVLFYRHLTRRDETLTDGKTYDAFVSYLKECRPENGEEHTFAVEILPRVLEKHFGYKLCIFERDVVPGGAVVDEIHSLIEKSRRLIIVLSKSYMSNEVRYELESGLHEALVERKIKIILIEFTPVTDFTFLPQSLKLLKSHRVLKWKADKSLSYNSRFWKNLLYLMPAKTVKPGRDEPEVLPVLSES
T1 sequence (looked up) 2: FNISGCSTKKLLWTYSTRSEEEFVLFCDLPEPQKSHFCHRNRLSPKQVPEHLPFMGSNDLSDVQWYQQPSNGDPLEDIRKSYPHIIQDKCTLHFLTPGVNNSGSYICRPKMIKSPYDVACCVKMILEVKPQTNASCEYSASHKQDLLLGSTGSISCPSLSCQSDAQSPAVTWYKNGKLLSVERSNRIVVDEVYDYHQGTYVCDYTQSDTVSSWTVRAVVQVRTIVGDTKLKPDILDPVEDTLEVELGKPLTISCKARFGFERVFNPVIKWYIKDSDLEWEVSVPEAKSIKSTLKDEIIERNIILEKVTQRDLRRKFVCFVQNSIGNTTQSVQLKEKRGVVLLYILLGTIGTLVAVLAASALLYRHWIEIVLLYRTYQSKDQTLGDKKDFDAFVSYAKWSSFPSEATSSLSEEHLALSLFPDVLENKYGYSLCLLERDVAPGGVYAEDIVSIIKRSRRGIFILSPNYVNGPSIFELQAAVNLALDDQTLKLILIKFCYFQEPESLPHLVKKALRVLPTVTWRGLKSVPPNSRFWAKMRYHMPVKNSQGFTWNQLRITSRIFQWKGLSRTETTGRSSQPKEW


Key:
[1] = biological target: T1, IL-18 receptor (IL-18Rαβ) on cells; assay: cell-based or functional assay
[2] = biological target: T1, IL-18 receptor (IL-18Rαβ) on cells; assay: cell-based or functional assay; remark: listed apart in the source

HEK-Blue IL-18R reporter EC50 [1] | EC50 (IFNγ stimulation, NK92) [2] | Binder
1.68 pM | – | C141 (ligand) GYFGKLKSKLSIIRNLNDQVLFIDQGNRPLFEDMTDSDARDNAPRTIFIISMYADSQPRGMAVAISVKCEKISTLSAENKIISFKEMNPPDNIKDTKSDIIFFQRSVPGHDNKMQFESSSYEGYFLAAEKERDLFKLILKKEDELGDRSIMFTVQNED
14 pM | – | C192 (ligand) GYFGKLKSKLSIIRNLNDQVLFIDQGNRPLFEDMTDSDARDNAPRTIFIISGYADSQPRGMAVAISVKCEKISTLSAENKIISFKEMNPPDNIKDTKSDIIFFQRSVPGHDNKMQFESSSYEGYFLAAEKERDLFKLILKKEDELGDRSIMFTVQNED
272 pM | 0.824 nM | SEQ ID NO 34 (ligand) YFGKLKSKLSVIRNLNDQVLFIDQGNRPLFEDMTDSDCRDNAPRTIFIISMYADAQPRGMAVTISVKCEKISTLSCENKIISFKEMNPPDNIKDTKSDIIFFQRSVPGHDNKMQFESSSYEGYFLACEKERDLFKLILKKEDELGDRSIMFTVQNED
9.12 pM | 0.962 nM | SEQ ID NO 54 (ligand) YFGKLKSKLSVIRNLNDQVLFIDQGNRPLFEDMTDSDSRDNAPRTIFIISMYADSQPRGMAVTISVKSECISTLSSENKIISFKEMNPPDNIKDTKSDIIFFQRSVPGHDNKMQFESSSYEGYFLASEKERDLFKLILKKEDELGDRSIMFTVQNED
– | > 1000 nM | SEQ ID NO 44 (ligand) YAGKLKSKLSVIRNLNDQVLFIDQGNRPLFEDMTDSDCRDNAPRTIFIISMYADAQPRGMAVTISVKCEKISTLSCENKIISFKEMNPPDNIKDTKSDIIFFQRSVPGHDNKMQFESSSYEGYFLACEKERDLFKLILKKEDELGDRSIMFTVQNED
0.17 pM | 0.026 nM | SEQ ID NO 62 (ligand) YFGKLKSKLSVIRNLNDQVLFIDQGNRPLFEDMTDSDARDNAPRTIFIISMYADSQPRGMAVTISVKCEKISTLSCENKIISFKEMNPPDNIKDTKSDIIFFQRSVPGHDNKMQFESSSYEGYFLAAEKERDLFKLILKKEDELGDRSIMFTVQNED
0.86 pM and 0.53 pM | 0.045 nM | SEQ ID NO 57 (ligand) YFGKLKSKLSVIRNLNDQVLFIDQGNRPLFEDMTDSDSRDNAPRTIFIISMYADSQPRGMAVTISVKCEKISTLSCENKIISFKEMNPPDNIKDTKSDIIFFQRSVPGHDNKMQFESSSYEGYFLACEKERDLFKLILKKEDELGDRSIMFTVQNED
1.77 pM | 0.0268 nM | SEQ ID NO 50 (ligand) YFGKLKSKLSVIRNLNDQVLFIDQGNRPLFEDMTDSDCRDNAPRTIFIISMYADSQPRGMAVAISVKCEKISTLSCENKIISFKEMNPPDNIKDTKSDIIFFQRSVPGHDNKMQFESSSYEGYFLACEKERDLFKLILKKEDELGDRSIMFTVQNED
– | > 55 nM | SEQ ID NO 35 (ligand) GAGKLKSKLSVIRNLNDQVLFIDQGNRPLFEDMTDSDCRDNAPRTIFIISGYAAAQPRGMAVAISVKCEKISTLSCENKIISFKEMNPPDNIKDTKSDIIFFQRSVPGHDNKMQFESSSYEGYFLACEKERDLFKLILKKEDELGDRSIMFTVQNED
– | 0.022 nM | SEQ ID NO 4 (ligand) YFGKLKSKLSVIRNLNDQVLFIDQGNRPLFEDMTDSDARDNAPRTIFIISMYADSQPRGMAVTISVKAEKISTLSCENKIISFKECNPPDNIKDTKSDIIFFQRSVPGHDNKMQFESSSYEGYFLACEKERDLFKLILKKEDELGDRSIMFTVQNED
– | 0.488 nM | SEQ ID NO 48 (ligand) YFGKLESKLSVIRNLNDQVLFIDQGNRPLFEDMTDSDSRDNAPRTIFIISMYKDSQPRGMAVTISVKSECISTLSSENKIISFKEMNPPDNIKDTKSDIIFFQRSVPGHDNKMQFESSSYEGYFLASEKERDLFKLILKKEDELGDRSIMFTVQNED
– | 7.4 nM | SEQ ID NO 46 (ligand) YFGKLKSKLSVIRNLNDQVLFIDQGNRPLFEDMTDSDCRDNAPRTIFIISGYADAQPRGMAVTISVKCEKISTLSCENKIISFKEMNPPDNIKDTKSDIIFFQRSVPGHDNKMQFESSSYEGYFLACEKERDLFKLILKKEDELGDRSIMFTVQNED
– | 1.37 nM | SEQ ID NO 6 (ligand) YFGKLKSKLSIIRNLNDQVLFIDQGNRPLFEDMTDSDARDNAPRTIFIISMYADSQPRGMAVAISVKAEKISTLSAENKIISFKEMNPPDNIKDTKSCIIFFQRSVPGHDNKMQFESSSYEGYFLAAEKERDLFKLILKKEDELGDRSIMFTVQNED
– | 17.2 nM | SEQ ID NO 55 (ligand) YFGKLESKLSVIRNLNDQVLFIDQGNRPLFEDMTDSDSRDNAPRTIFIISMYADSQPRGMAVAISVKSECISTLSSENKIISFKEMNPPDNIKDTKSDIIFFQRSVPGHDNKMQFESSSYEGYFLASEKERDLFKLILKKEDELGDRSIMFTVQNED
0.02 pM | – | C142 (ligand) MFGKLKSKLSIIRNLNDQVLFIDQGNRPLFEDMTDSDARDNAPRTIFIISMYADSQPRGMAVAISVKCEKISTLSAENKIISFKEMNPPDNIKDTKSDIIFFQRSVPGHDNKMQFESSSYEGYFLAAEKERDLFKLILKKEDELGDRSIMFTVQNED
– | 0.115 nM | SEQ ID NO 47 (ligand) YFGKLESKLSVIRNLNDQVLFIDQGNRPLFEDMTDSDSRDNAPRTIFIISMYKDSQPRGMAVTISVKSEKISTLSSENKIISFKEMNPPDNIKDTKSDIIFFQRSVPGHDNKMQFESSSYEGYFLASEKERDLFKLILKKEDELGDRSIMFTVQNED
– | 0.069 nM | SEQ ID NO 9 (ligand) YFGKLKSKLSVIRNLNDQVLFIDQGNRPLFEDMTDSDARDNAPRTIFIISMYADSQPRGMAVTISVKAEKISTLSCENKIISFKEMNPPDNIKDTKSCIIFFQRSVPGHDNKMQFESSSYEGYFLACEKERDLFKLILKKEDELGDRSIMFTVQNED
– | 58.5 nM | SEQ ID NO 49 (ligand) YFGKLKSKLSVIRNLNDQVLFIDQGNRPLFEDMTDSDSRDNAPRTIFIISMYADAQPRGMAVTISVKSECISTLSSENKIISFKEMNPPDNIKDTKSDIIFFQRSVPGHDNKMQFESSSYEGYFLASEKERDLFKLILKKEDELGDRSIMFTVQNED
0.79 pM | 0.144 nM | SEQ ID NO 42 (ligand) YFGKLKSKLSVIRNLNDQVLFIDQGNRPLFEDMTDSDCRDNAPRTIFIISMYADAQPRGMAVAISVKCEKISTLSCENKIISFKEMNPPDNIKDTKSDIIFFQRSVPGHDNKMQFESSSYEGYFLACEKERDLFKLILKKEDELGDRSIMFTVQNED
– | 30 nM | SEQ ID NO 45 (ligand) YFGKLKSKLSVIRNLNDQVLFIDQGNRPLFEDMTDSDCRDNAPRTIFIISMYAAAQPRGMAVTISVKCEKISTLSCENKIISFKEMNPPDNIKDTKSDIIFFQRSVPGHDNKMQFESSSYEGYFLACEKERDLFKLILKKEDELGDRSIMFTVQNED
– | 6.12 nM | SEQ ID NO 43 (ligand) GFGKLKSKLSVIRNLNDQVLFIDQGNRPLFEDMTDSDCRDNAPRTIFIISMYADAQPRGMAVTISVKCEKISTLSCENKIISFKEMNPPDNIKDTKSDIIFFQRSVPGHDNKMQFESSSYEGYFLACEKERDLFKLILKKEDELGDRSIMFTVQNED
– | 0.075 nM | SEQ ID NO 5 (ligand) YFGKLKSKLSIIRNLNDQVLFIDQGNRPLFEDMTDSDARDNAPRTIFIISMYADSQPRGMAVAISVKAEKISTLSAENKIISFKECNPPDNIKDTKSDIIFFQRSVPGHDNKMQFESSSYEGYFLAAEKERDLFKLILKKEDELGDRSIMFTVQNED
